# Results as given in FireProtDB (doi:10.1021/bi992119u).
# B1: Steroid Delta-isomerase, P07445 (parent)
# chain: MNLPTAQEVQGLMARYIELVDVGDIEAIVQMYADDATVEDPFGQPPIHGREQIAAFYRQGLGGGKVRACLTGPVRASHNGCGAMPFRVEMVWNGQPCALDVIDVMRFDEHGRIQTMQAYWSEVNLSVREPQ
# Variants of: B1
# Details: Pseudomonas putida; pH 7; 25 °C; Urea; CD; Sodium phosphate 25 mM; reversible: yes; structure 1OH0; whole UniProt chain shown
Variant,denaturant m value [kcal/mol/M],denaturant midpoint (higher = more stable) [M],unfolding free energy [kcal/mol]
MNLPTAQEVQGLMARYIELVDVGDIEAIVQMYADDATVEDPFGQPPIHGREQIAAFFRQGLGGGKVRACLTGPVRASHNGCGAMPFRVEMVWNGQPCALDLIDVMRFDEHGRIQTMQAYWSEVNLSVREPQ [Y57F V101L],2.31,4.25,16.4
MNLPTAQEVQGLMARYIELVDVGDIEAIVQMFADDATVEDPFGQPPIHGREQIAAFFRQGLGGGKVRACLTGPVRASHNGCGAMPFRVEMVWNGQPCALDVIDVMRFDEHGRIQTMQAYWSEVNLSVREPQ [Y32F Y57F],3.05,5.81,24.3
MNLPTAQEVQGLMARFIELVDVGDIEAIVQMYADDATVEDPFGQPPIHGREQIAAFYRQGLGGGKVRACLTGPVRASHNGCGAMPFRVEMVWNGQPCALDVIDVMRFDEHGRIQTMQAYWSEVNLSVREPQ [Y16F],3.1,4.3,19.9
MNLPTAQEVQGLMARYIELVDVGDIEAIVQMYADDATVEDPFGQPPIHGREQIAAFFRQGLGGGKVRACLTGPVRASHNGCGAMPFRVEMVWNGQPCALDVIDVMRFDEHGRIQTMQAYWSEVNLSVREPQ [Y57F],2.98,4.77,20.8
MNLPTAQEVQGLMARYIELVDVGDIEAIVQMYADDATVEDPFGQPPIHGREQIAAFYRQGLGGGKVRACLTGPVRASHNGCGAMPFRVEMVWNGQPCALDLIDVMRFDEHGRIQTMQAYWSEVNLSVREPQ [V101L],3.32,4.19,20.5
MNLPTAQEVQGLMARYIELVDVGDIEAIVQMFADDATVEDPFGQPPIHGREQIAAFYRQGLGGGKVRACLTGPVRASHNGCGAMPFRVEMVWNGQPCALDVIDVMRFDEHGRIQTMQAYWSEVNLSVREPQ [Y32F],3.23,5.49,24.3
MNLPTAQEVQGLMARYIELVDVGDIEAIVQMFADDATVEDPFGQPPIHGREQIAAFYRQGLGGGKVRACLTGPVRASHNGCGAMPFRVEMVWNGQPCALDLIDVMRFDEHGRIQTMQAYWSEVNLSVREPQ [Y32F V101L],2.52,4.45,17.8
